Results: patent US20040115667A1, “Dna-sequences, which code for an apoptosis signal transduction protein” (priority 2000, published 2004)
“Also recorded” adds a separate entry of the source. Peptide text beside a SMILES is read from it. * marks the point of attachment. Cbz = O=C(OCc1ccccc1)*; CH2F = FC*

Assays:
[1] = system: Bcl-rambo-induced cell death (caspase-3 activity) in 293T cells; experiment: Effect of apoptosis inhibitors on apoptotic activity of full-length Bcl-rambo in 293T cells; assay type: cell-based, human
Protocol: The effect of different apoptosis inhibitors on the apoptotic activity of Bcl-rambo is investigated in FIG. 6. For this, 293T cells were transfected for 27 hours (shown in FIG. 6A) with 2 μg of Bcl-rambo expression plasmid and 0.5 μg of expression vectors encoding various apoptosis inhibitors, together with 0.5 μg of β-galactosidase expression vector.
(§1) 293T cells (3×10^5 cells) were sown on 60 mm culture dishes on the day before the transfection and then transiently cotransfected with 2 μg of Bcl-rambo expression plasmids and 0.2 μg of EGFP expression vector (pEGFP-C1, from Clontech) or with 0.5 μg of pCMV-β-galactosidase expression vector. The postnuclear lyzates were then analyzed with regard to the fluorescence intensity of EGFP, the galactosidase activity and the caspase-3 activity using a peptide substrate (Ac-DEVD-AMC, from Alexis). In order to be able to compare the individual measurements, the caspase-3 activity (measured as the number of times it was increased by the induction) was standardized using the fluorescence intensity of EGFP or the β-galactosidase activity.

[2] = system: caspase-3 activity in 293T cells; experiment: Caspase-3 activity / apoptosis in 293T cells transfected with Bcl-rambo constructs; assay type: cell-based, human; details: 2 μg construct, 42 hours; for increase in caspase-3 activity (times increase in activity induced): standardized by EGFP fluorescence
Protocol: FIG. 5 describes the Bcl-rambo-induced apoptosis which is induced by the C-terminal domain of Bcl-rambo. For this, 293T cells were transfected with 2 μg of various Bcl-rambo constructs, namely mock transfectants, full-length Bcl-rambo (amino acids 1-485), Bcl-rambo without the C-terminal anchor domain (amino acids 1-459), the N-terminal domain of homology with Bcl-2 (amino acids 1-223), the C-terminal domain containing the BHNo region (amino acids 205-485), the C-terminal domain without the anchor region (amino acids 205-459) and, finally, a truncated N-terminal domain (amino acids 1-201). All the abovementioned constructs are depicted diagrammatically in FIG. 5 (right-hand drawing), with the BH regions (BH4 (4), BH3 (3), BH1 (1) and BH2 (2)) and also, if present, the tandem repeats and/or the anchor regions (MA) being shown diagrammatically. The transfection, which took place jointly together with 0.2 μg of an EGFP expression vector, namely pEGFP-C1, lasted for 42 hours. The graph shown in the upper left of FIG. 5 plots the caspase-3 activity (as the times increase in activity induced). The activity in the individual experimental assays was standardized by taking into account the fluorescence intensity of transfected EGFP, i.e. the cotransfection with the EGFP expression vector was used to check the transfection rate in order to ensure that it was possible to compare the results in the different experimental assays.
It follows from the results of the experiments depicted in FIG. 5 that the BHNo domain (and not, for example, the domain having homology with Bcl-2) is responsible for inducing cell death when Bcl-rambo is overexpressed. […] In the case of all the cell extracts, the strength of the expression of the individual constructs in the transfected cells was checked by Western blot analysis using anti-Flag antibody M2 (lower left-hand diagram in FIG. 5).
as §1

[3] = system: antiapoptotic proteins (Bcl-2, Bcl-XL, Bcl-w, A1, MCL-1, E1B-19K and BHRF1); experiment: Co-immunoprecipitation of Bcl-rambo with antiapoptotic proteins of the Bcl-2 family in 293T cells; assay type: binding; details: HA-labeled Bcl-rambo with Flag-labeled antiapoptotic protein
[4] = biological target: T1, proapoptotic proteins Bax, Bak, Bik, Bid, Bim, Bad and Bcl-rambo (Homo sapiens, UniProt Q9BXK5); experiment: Co-immunoprecipitation of Bcl-rambo with proapoptotic proteins of the Bcl-2 family in 293T cells; assay type: binding; details: co-immunoprecipitation
T1 construct: expressed in transfected cells; host or cells: 293T cells

[5] = system: proapoptotic proteins Bax, Bak, Bik, Bid, Bim, Bad and Bcl-rambo; experiment: as above; assay type: binding; details: anti-Flag M2 agarose immunoprecipitation, anti-EE blot, also with z-VAD-fmk

`COC(=O)C[C@H](NC(=O)[C@H](C)NC(=O)[C@@H](NC(=O)OCc1ccccc1)C(C)C)C(=O)CF` [z-VAD-fmk, reference compound] (Cbz-Val-Ala-Asp(OMe)-CH2F) was tested. Which “suppression of Bcl-rambo-induced cell death by pancaspase inhibitor” value ([1]; not depicted in FIG. 6) did it give?
The value was “completely suppressed”.

How did the “blocking of Bcl-rambo-induced cell death by coexpressed apoptosis inhibitor” value ([1]; 293T cells, 27 hours, 2 μg Bcl-rambo plasmid, 0.5 μg inhibitor vector, standardized by β-galactosidase) turn out when “c-IAP2: apoptosis inhibitor of the IAP family, coexpressed” was run?
The value was “act as inhibitors; also recorded: inhibitory effect”.

B1: 205-459 construct: C-terminal domain of Bcl-rambo without the anchor region (amino acids 205-459) (protein, UniProt Q9BXK5 205-459, looked up, fragment)
chain: SLESEEEEYPGITAEDSNDIYILPSDNSGQVSPPESPTVTTSWQSESLPVSLSASQSWHTESLPVSLGPESWQQIAMDPEEVKSLDSNGAGEKSENNSSNSDIVHVEKEEVPEGMEEAAVASVVLPARELQEALPEAPAPLLPHITATSLLGTREPDTEVITVEKSSPATSLFVELDEEEVKAATTEPTEVEEVVPALEPTETLLSEKEINAREESLVEELSPASEKKPVPPSEGKSRLSPAGEMKPMPLSEGKS
With B1 as the molecule, how does the “effect on cell survival / induction of cell death on overexpression” value (shortened to “effect on cell survival / induction”) [2] read?
The value was “no longer able to elicit cell death”.

B2: C-terminal BHNo domain (amino acids 205-459): C-terminal domain with BHNo region and membrane anchor; range printed as 205-459, probably 205-485 (protein, UniProt Q9BXK5 205-485, looked up, fragment)
chain: SLESEEEEYPGITAEDSNDIYILPSDNSGQVSPPESPTVTTSWQSESLPVSLSASQSWHTESLPVSLGPESWQQIAMDPEEVKSLDSNGAGEKSENNSSNSDIVHVEKEEVPEGMEEAAVASVVLPARELQEALPEAPAPLLPHITATSLLGTREPDTEVITVEKSSPATSLFVELDEEEVKAATTEPTEVEEVVPALEPTETLLSEKEINAREESLVEELSPASEKKPVPPSEGKSRLSPAGEMKPMPLSEGKSILLFGGAAAVAILAVAIGVALALRKK
Which “increase in caspase-3 activity (times increase in activity induced)” value [2] does the source give for B2 here?
Its value is “approx. 80 fold”.

B3: full-length Bcl-rambo: full-length human Bcl-rambo protein, amino acids 1-485, expressed from plasmid (protein, UniProt Q9BXK5 1-485, looked up)
chain: MASSSTVPLGFHYETKYVVLSYLGLLSQEKLQEQHLSSPQGVQLDIASQSLDQEILLKVKTEIEEELKSLDKEISEAFTSTGFDRHTSPVFSPANPESSMEDCLAHLGEKVSQELKEPLHKALQMLLSQPVTYQAFRECTLETTVHASGWNKILVPLVLLRQMLLELTRRGQEPLSALLQFGVTYLEDYSAEYIIQQGGWGTVFSLESEEEEYPGITAEDSNDIYILPSDNSGQVSPPESPTVTTSWQSESLPVSLSASQSWHTESLPVSLGPESWQQIAMDPEEVKSLDSNGAGEKSENNSSNSDIVHVEKEEVPEGMEEAAVASVVLPARELQEALPEAPAPLLPHITATSLLGTREPDTEVITVEKSSPATSLFVELDEEEVKAATTEPTEVEEVVPALEPTETLLSEKEINAREESLVEELSPASEKKPVPPSEGKSRLSPAGEMKPMPLSEGKSILLFGGAAAVAILAVAIGVALALRKK
modifications: full-length
notes: full-length human Bcl-rambo protein, amino acids 1-485, expressed from plasmid
B3 was tested. Which “interaction with antiapoptotic Bcl-2 family proteins” value [3] did it give?
The value was “not possible to detect any interactions; also recorded: no interactions were observed”.

What about the “effect on cell survival / induction” value [2] of the same molecule?
Its value is “marked proapoptotic effect”.

And the “increase in caspase-3 activity (times increase in activity induced)” value [2]?
Its value is “approx. 70 fold”.

And the homodimer formation [4]?
Its homodimer formation is “Nor can any homodimers be detected”.

And the “protein/protein interaction with proapoptotic Bcl-2 family proteins” value [5]?
Its value is “not possible to detect any protein/protein interaction”.

B4: amino acids 1-223: N-terminal domain of Bcl-rambo with homology to Bcl-2 (protein, UniProt Q9BXK5 1-223, looked up, fragment)
chain: MASSSTVPLGFHYETKYVVLSYLGLLSQEKLQEQHLSSPQGVQLDIASQSLDQEILLKVKTEIEEELKSLDKEISEAFTSTGFDRHTSPVFSPANPESSMEDCLAHLGEKVSQELKEPLHKALQMLLSQPVTYQAFRECTLETTVHASGWNKILVPLVLLRQMLLELTRRGQEPLSALLQFGVTYLEDYSAEYIIQQGGWGTVFSLESEEEEYPGITAEDSND
How did the “interaction with antiapoptotic Bcl-2 family proteins” value [3] turn out when B4 was run?
Its value is “does not interact with other proteins of the Bcl-2 family”.

And the “effect on cell survival / induction” value [2]?
The value was “no effect on cell survival rate”.

What about the “protein/protein interaction with proapoptotic Bcl-2 family proteins” value [5] of the same molecule?
Its value is “does not interact with other proteins of the Bcl-2 family”.

B5: 1-203: truncated N-terminal domain of Bcl-rambo; printed 1-203, elsewhere 1-201 (protein, UniProt Q9BXK5 1-201, looked up, fragment)
chain: MASSSTVPLGFHYETKYVVLSYLGLLSQEKLQEQHLSSPQGVQLDIASQSLDQEILLKVKTEIEEELKSLDKEISEAFTSTGFDRHTSPVFSPANPESSMEDCLAHLGEKVSQELKEPLHKALQMLLSQPVTYQAFRECTLETTVHASGWNKILVPLVLLRQMLLELTRRGQEPLSALLQFGVTYLEDYSAEYIIQQGGWG
For B5, which “effect on cell survival / induction” value [2] is on record?
Its value is “no effect on cell survival rate”.
